Changes are numbered by the printed parent chain.
Experiments:
Test in all cases: Western blot: E. coli lysate with the GST-tagged peptide, SDS-PAGE, PVDF membrane, POD-labelled antibody diluted 1000-fold, ECL
[1] = target: T1, GST-tagged peptide H38 (H10 with R289K, E299Q and L325P) (human, UniProt P0DOX5 343-449 = IgG part)
T1 construct: not shown: N-terminal GST tag (from vector pGEX-6P-1) and any vector linker
T1 chain: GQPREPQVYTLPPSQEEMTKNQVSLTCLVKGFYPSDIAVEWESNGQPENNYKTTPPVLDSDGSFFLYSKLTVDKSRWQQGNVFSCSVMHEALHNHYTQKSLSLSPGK
Experimental: (§1) Based on the designed amino acid sequences, base sequences suitable for expressing protein in E. coli were designed according to the protocol of GenScript Corporation, thereby preparing vector pGEX-6P-1 (GE Healthcare Bio-Sciences Corp.) to which the respective base sequences are inserted. The prepared expression plasmid was introduced to E. coli BL 21 strain, thereby obtaining a transformant. The transformant was cultured by an ordinary method and a protein expression was induced by IPTG. After the cells were collected by centrifugation, the cells were dissolved with an ordinary lysis solution, and subjected to ultrasonication. 6 μL of an SDS sample buffer solution was added to 6 μL of the obtained lysate. The respective prepared samples were subjected to a heat treatment at 95° C. for 5 minutes. 10 μL of the E. coli disrupted sample was added to each well of 5 to 20% electrophoresis gel (Atto Corportation) to which an SDS electrophoresis buffer solution was added. Similarly, a molecular weight standard (Bio-Rad Laboratories, Inc.) was added to each well and electrophoresed. After completing the electrophoresis, the electrophoresis gel was transcribed to a PVDF membrane (Millipore Corporation) with a transfer buffer solution. The PVDF membrane was immersed in a membrane blocking buffer solution, and then shaking was carried out at room temperature for 30 minutes. Amino groups of MaI4-08, MaI4-09, and MaI4-05-produced antibodies were subjected to a POD labeling treatment with a POD labeling kit (Dojindo Molecular Technologies, Inc.). The obtained labeled antibodies each were diluted 1000-fold by PBST. After the PVDF membrane was cleaned with PBST, the antibody solutions prepared each were added to the PVDF membrane, and then the reaction was performed at room temperature for 1 hour. After the PVDF membrane was cleaned by PBST, a signal was detected with ECL Prime Western Blotting Detection Reagents (GE Healthcare) with Image Quant Las4000.

[2] = target: T2, GST-tagged peptide H31 (H10 with arginine for glutamine at position 235) (human, UniProt P01861 221-325 = IgG part)
T2 construct: not shown: GST tag (glutathione S-transferase) linked to the N terminal, expressed from vector pGEX-6P-1
T2 chain: T1 chain with Q15R, K69R, Q79E, P105L
Experimental: as §1

[3] = target: T3, GST-tagged peptide H33 (H10 with glutamine for glutamic acid at position 299) (human, UniProt P01861 221-325 = IgG part)
T3 construct: not shown: GST tag (glutathione S-transferase) linked to the N terminal, expressed from vector pGEX-6P-1
T3 chain: T1 chain with K69R, P105L
Experimental: as §1

[4] = target: T4, GST-tagged peptide H36 (positions 221 to 327 with the human IgG4 specific sequence replaced by the … (human, UniProt P0DOX5 343-449 = IgG part))
T4 construct: not shown: GST tag (glutathione S-transferase) linked to the N terminal, expressed from vector pGEX-6P-1
Experimental: as §1

[5] = target: T5, GST-tagged peptide H7 (positions 56 to 327 of the human IgG4 heavy chain constant region) (human, UniProt P01861 56-325 = IgG part)
T5 construct: E. coli lysate on Western blot; not shown: GST tag (glutathione S-transferase) linked to the N terminal, expressed from vector pGEX-6P-1
Experimental: as §1

[6] = target: T6, GST-tagged peptide H2 (positions 1 to 274 of the human IgG4 heavy chain constant region) (human, UniProt P01861 1-274 = IgG part)
T6 construct: E. coli lysate on Western blot; not shown: GST tag (glutathione S-transferase) linked to the N terminal, expressed from vector pGEX-6P-1
Experimental: as §1

[7] = target: T7, GST-tagged peptide H3 (positions 1 to 220 of the human IgG4 heavy chain constant region) (human, UniProt P01861 1-220 = IgG part)
T7 construct: E. coli lysate on Western blot; not shown: GST tag (glutathione S-transferase) linked to the N terminal, expressed from vector pGEX-6P-1
Experimental: as §1

H-39 = target: T8, H-39
T8 construct: not shown: N-terminal GST tag and the vector-coded linker of pGEX-6P-1
T8 chain: T1 chain with Q15R, E16D, M18L, Q79E
Experimental: as §1

[8] = target: T9, GST-tagged peptide H1 (full-length human IgG4 heavy chain constant region) (human, UniProt P01861 1-325 = IgG part)
T9 construct: Expressed in E. coli BL21; lysate, reduced and heat-denatured, on SDS-PAGE / Western blot; not shown: GST tag (glutathione S-transferase) linked to the N terminal, expressed from vector pGEX-6P-1
Experimental: as §1

[9] = target: T10, GST-tagged peptide H12 (positions 99 to 220 of the human IgG4 heavy chain constant region) (human, UniProt P01861 99-220 = IgG part)
T10 construct: E. coli lysate on Western blot; not shown: GST tag (glutathione S-transferase) linked to the N terminal, expressed from vector pGEX-6P-1
Experimental: as §1

T6 sequence (P01861 1-274): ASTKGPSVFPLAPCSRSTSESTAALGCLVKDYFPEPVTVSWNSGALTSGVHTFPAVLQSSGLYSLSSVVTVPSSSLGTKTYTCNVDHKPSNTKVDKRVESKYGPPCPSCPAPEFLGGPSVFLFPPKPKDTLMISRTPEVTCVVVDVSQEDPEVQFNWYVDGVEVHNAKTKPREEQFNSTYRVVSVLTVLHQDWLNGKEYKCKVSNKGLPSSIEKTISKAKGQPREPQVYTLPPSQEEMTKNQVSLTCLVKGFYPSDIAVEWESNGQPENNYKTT
T10 sequence (P01861 99-220): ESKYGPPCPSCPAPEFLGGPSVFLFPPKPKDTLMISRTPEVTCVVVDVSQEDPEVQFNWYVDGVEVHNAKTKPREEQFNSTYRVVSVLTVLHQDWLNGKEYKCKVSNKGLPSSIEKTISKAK
T7 sequence (P01861 1-220): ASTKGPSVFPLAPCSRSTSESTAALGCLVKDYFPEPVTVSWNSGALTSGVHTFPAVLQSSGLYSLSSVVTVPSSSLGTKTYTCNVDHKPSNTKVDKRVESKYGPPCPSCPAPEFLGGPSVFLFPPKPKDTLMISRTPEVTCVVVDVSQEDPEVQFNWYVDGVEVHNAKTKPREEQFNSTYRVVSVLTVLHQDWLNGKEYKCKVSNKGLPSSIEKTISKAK

B1: MaI4-08-produced antibody (antibody, IgG1, V domains shown)
VH: EVQLQQSGPELVKPGTSVKMSCKASGYIFTSYILHWVKQKPGQGLEWIAYINPYNDGTKYKEKFKGKGTLTSDKSSSTAYMELSSLTSEDSAVYYCARSGGGYGNYAWFAYWGPGTLVTVST
VL: DIQMTQSPSSLSASLGERVSLTCRASQDIGSSLNWLQQEPDGTIKRLIYATSSLDSGVPKRFSGSRSGSDYSLTISSLESEDFVDYYCLQYASYPPTFGAGTKLELK
notes: Purified on protein G from hybridoma culture supernatant; POD-labelled for the Western blots
binding result [1]: no binding
binding result [2]: binds
binding result [3]: no binding
binding result [4]: no binding
binding result [5]: binds
binding result [6]: no binding
binding result [7]: no binding
binding result (H-39): binds
binding result [8]: binds
binding result [9]: no binding

— patent US20210140973A1 (NITTO BOSEKI, published 2021)
